Results taken from the nanobody polyreactivity screen of Harvey et al. (2022).

Test: yeast display, Sf9 membrane polyspecificity reagent, FACS + sequencing; frameworks hold sequencing errors
Outline: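 Using colony PCR, genes from sorted yeast display clones were amplified, then sequenced on MiSeq at 2 × 250 and filtered by CDR length. The clones had been stained with 10% biotinylated, detergent-solubilized Sf9 membrane reagent for 1 hour at 4 °C and sorted by FACS into low and high (top ~1%) gates on anti-HA and streptavidin fluorescence. Polyreactivity labels come from the gate of origin.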

Sequence | polyreactivity (PSR sort gate)
QVQLVESGGGLVQAGGSLRLSCAPSGSIFPYAMGWYRQAPGKERELVAAITRSGASTYYADSVKGRFTISRDNAKNTVYLQLNSLKPEDTAVYYCAAYALRGVRYPYRVDFYYWGQGTQVTVSS | high polyreactivity
QVQLVESGGGLVQAGGSLRLSCAPSGSIFVTYAMGWYRQAPGKERELVAAISTSGGSTYADSVKGRFTISRVNAKNTVYLQMNSLKPEDTAVYYCNADDPGYAVPWYWFKYDYWGQGTQVTVSS | low polyreactivity
QVQLVESGGGLVQAGGSLRLSCAPSGSTFGDNAMGWYRQAPGKERELVAAISSGGGSTYYADSVKGRFTISRDNAKNTVYLQMNSLKPEDTAVYYCAADGTLTLYRYILDYWGQGTQVTVSS | low polyreactivity
QVQLVESGGGLVQAGGSLRLSCAPSGSTFLDNAMGLYRQAPGKESELVAAISRGGSTNYADSVKWLFTSSRDNAKNTVYLQMNSLKPEDTAVYYCAARVNYASRYWYYIIRGTIDYYWGQGTQVTVSS | low polyreactivity
QVQLVESGGGLVQAGGSLRLSCAPSGSTFPLYAMGWYRQAHGNEREFVAAIRWIGGSTYYADSVKGRFTISRDNAKNTVYLQMNSLKPEDTAVYYCAADYVVSAFDYWGQGTQVTVSS | low polyreactivity
QVQLVESGGGLVQAGGSLRLSCAPSGSTFQYYAMGWYRQAPGKESELVATITRRGDSTYYADSVKGRFTISRDSAKNTVYFQMNSLKPEDTAVYYCATRYWRSGYDWPYGSWGQGTQETVSS | high polyreactivity
QVQLVESGGGLVQAGGSLRLSCAPSGTIFYSYAMGWYRQAPGKERELVAAISQRGGSTYYADSVKGRFTISRDNAKNTVYLQMNSLKPEDTAVYYCNAVYRRAQFLYGYDYWGQGTQVTVSS | high polyreactivity
QVQLVESGGGLVQAGGSLRLSCAPSGYTFIFNVMGWYRQAPGKERELVAAISYSGGSTNYADSVKGRYTTSRDNAKNTVYFQMNSLKPEDTAVYYCNARTVSRNGYQDDYWGQGTQVTVSS | low polyreactivity
QVQLVESGGGLVQAGGSLRLSCAPTGSIFSVYAMGWYRHAPGKESELVATISSSGSTNYADSVKGRFTISRDNAKNTVYLQMNSLKPEDTAVYYCNVVGEYTQSDYSGYDYWGQGTQVTLSS | low polyreactivity
QVQLVESGGGLVQAGGSLRLSCASSGFIFGRNAMGWYRQAPGKERELVAGISSRGGRTYYADSVKGRFTISRDNAKITVYLEMNSLKPEDTAEYYCAAAGLTDYVRYDYWGQGTQVTVSS | high polyreactivity
QVQLVESGGGLVQAGGSLRLSCASSGFIFSSYAMGWYRQAPGKERELVARISLSGGSTFYADSVKGRFTISRDNAKNTVYFQMNSLKPEDTAVYYCAARDFSTHFSPMDYWGQGTQVTVSS | low polyreactivity
QVQLVESGGGLVQAGGSLRLSCASSGFIFSTSALGWYRQAPGKERELVAAISRTGGSTYYADSDKGRFTISRDNANNTVYLQMNSLKPEDTAVYYCAAAIYSFWYEYNYWGHGTQVTVSS | high polyreactivity
QVQLVESGGGLVQAGGSLRLSCASSGFSFLSYTMGWYRQAPGKERELVAAITSGGSTYYADSVKGRFTISRDNAKNTVYLQMNSLKPEDTAVYYCAVTYRWHTFIYDYWGQGTQVTVSS | low polyreactivity
QVQLVESGGGLVQAGGSLRLSCASSGFTFRGYAIGWYRQAPGKERELVAAITGGGSTNYADSVKGRFTISRDNAKNTVYLQMNSLKPEDTAVYYCAADASWALFAWAHYDYWGEGTQVTVSS | low polyreactivity
QVQLVESGGGLVQAGGSLRLSCASSGFTFRLNAMGWYRQAPGKERELVAAITRSGGNTYYADSVKGRFTISRDNAKNTVYLQMNSLKPEDTAVYYCAVRQLDRRSPKYNYWGQGTQVTVSS | high polyreactivity
QVQLVESGGGLVQAGGSLRLSCASSGFTFSVYAMGWYREAPGKERELVAAITWRGGSTYYADSVKGRFTISRDNAKNTVYLQMNSLKPEDSAVYYCAVLYPKYGKRYGYWGQGTQVTVSS | high polyreactivity
QVQLVESGGGLVQAGGSLRLSCASSGGTFPYYAMGWYRQAPGKERELVAAINYSCGSTYYADSVKGRFTISRDNAQYTVYLQMTSLKPEDTAVFYCAARYQFYRYDSTYSYWGQGTQVTVSS | high polyreactivity
QVQLVESGGGLVQAGGSLRLSCASSGIIFLTYAMGWYRQAPGKERELVAAINSTGSTNYADSVKGRFTISRDNAKYSVYLQMNSLKPDDTAVYYCAAEGLPYVRVFDFVSRYDYWGQGTQVTVSS | low polyreactivity
QVQLVESGGGLVQAGGSLRLSCASSGIIFNVYAMGWYRQAPGKERELVAAISSTSSTYADSVKGRFTISRDNAKNTVYLQMNSLKPEDTAVYYCNTDYSDGYPAFAYWGQGTQVTVSS | low polyreactivity
QVQLVESGGGLVQAGGSLRLSCASSGIIFVYYAMGWYRQAPGKERELVAVITESGVSTYYADSVKGRFTISRDNAKNTVYLQMNSLKPEDTAVYYCNRDYPYIWHKGARYWHENDYWGQGTQVTVSS | low polyreactivity
QVQLVESGGGLVQAGGSLRLSCASSGIIFYKYAMGWYRQAPGKERELVAVISRGGGSTYYADSVKGRFTISRDNAKNTVYLQMNSLKPEDTAVYYCAADPRVTRSYTYDYWVQGTQVTVSS | high polyreactivity
QVQLVESGGGLVQAGGSLRLSCASSGLIFAYYGMVWYRQAPGKEREFVAAISWRGGSTYYADSVKGRFTISRDNAKNTVYLQMNSLKPEDTAVYYCAARPLYGSARTNYGYWGQGTQVSVSS | high polyreactivity

Sequence | polyreactivity (PSR sort gate)
QVQLVESGGGLVQAGGSLRLSCASSGLIFVVYAMGWYRQAPGKERELVAAISTSGDRTYYADSVKGRFTISRDNAKNTVYLLMNSLKPEDTAVYYCAAGRRKVPYCREYYYWGQVTQVTVSS | high polyreactivity
QVQLVESGGGLVQAGGSLRLSCASSGLIFYDNMGWYRQAPGKETELVAAISSSGGSTSYADSVKGRFTISRDNAKNTVYLQMNSLKPEDTAVYYCAADSYPAYLGFFGFDYWGQGTQVTVSS | low polyreactivity
QVQLVESGGGLVQAGGSLRLSCASSGLTFAAYAMGWSRQAPGKERELVAAISRRGGSTYYADSVKGRFTISRDNAKNTVYLQMNSLKPEDTAVYYCAAENEVYWYDVEYWGQGTQVTVSS | high polyreactivity
QVQLVESGGGLVQAGGSLRLSCASSGLTFYPYAMGWYRQAPGKERELVAAISKSGGRTSYADSVKGRFTISRDNAKNTVYLQMNSLKPEDTAVYYCNARSGTFGYSTYGYWGQGTQETVSS | high polyreactivity
QVQLVESGGGLVQAGGSLRLSCASSGNTFVAYAMGWYRQAPGKERELVAGITRGGTTYYADSVKGRFTISRDNAKNTVYLQMNSLKPEDTAVYYCAARLGYRYNYWGQGTQVTVSS | high polyreactivity
QVQLVESGGGLVQAGGSLRLSCASSGRIFGIYAMGWYRQAPGKESELVARITGGGSTNYADSVKGRFTISRDNAKNTVYLQMNSLKPEDTAVYYCAATVRRIVGNITRYDYWGQGTQVTVSS | low polyreactivity
QVQLVESGGGLVQAGGSLRLSCASSGRIFGLYAMGWYRHAPGKERELVAAITLSGDGTDYADSVKGRFTISRDNAKNTVYLQMNSLKPEDTAVYYCAKVGQYWWNMDYWGQGTQVTVSS | low polyreactivity
QVQLVESGGGLVQAGGSLRLSCASSGRIFGVYAMGWYRQAPGKERELVAAITRGASTYYADSVKGRFTISRDNAKNTVYLQMNSLKPEDTAVYYCAVSQHRGIYRKYDYWGQGTQVTVSS | high polyreactivity
QVQLVESGGGLVQAGGSLRLSCASSGRIFNGNTMGWYRQAPGKERELVAGITGSSGSTYYADSVKGRFTISRDNANNSVYLPMNSLKPEDTGVYYCAAGRRYRCVGYGYWGQGTQVTVSS | high polyreactivity
QVQLVESGGGLVQAGGSLRLSCASSGRIFQFYAMGWYRQEPGKERELVASISWSGGRTYYADSVKGRFTISRDNAKNTVYLQMNSLNPEDTAVYYCAADYYDYYYWGQGTQVTVSS | high polyreactivity
QVQLVESGGGLVQAGGSLRLSCASSGRIFRGYAKGGYRQAPGKERELVADISSGASTNYADSVKGRFTISRDNAKNSVYLQMNRLKPEDTAVYYCAASIYAALIGGPGYDYWGQGTQVTVSS | low polyreactivity
QVQLVESGGGLVQAGGSLRLSCASSGRIFRSYAMGWYRQAPGKERELVAAISSGGGSTYYADSVKGRFTISRDNAKNTVYLQMNSLKPEDTAVYYCNTDFYYDDVSQAHDYWGQGTQVTVSS | high polyreactivity
QVQLVESGGGLVQAGGSLRLSCASSGRIFYTYAMGWYRQAPGKERELVAAIRYSGGSTYYADSVKGRFTISRDNAMNTVYLQINSLKPEDTAVYYCAATVYTKQFDYWGQGTQVTVSS | high polyreactivity
QVQLVESGGGLVQAGGSLRLSCASSGRIIRRNAMGWYRQAPGKERELVASISQGGSTYYADSVKGRFTISRDNAKNTVYLQMNSLKPEDTAVYYCAATLSYYVGVRYDYWGQGTQVTVSS | high polyreactivity
QVQLVESGGGLVQAGGSLRLSCASSGRTFAWYAMGWYRQAPGKERELVAAISNVGSTYYADSVKGRFTISRDNAKNTVYLQMNSLKPEDTAVYYCNADAVSTDGREYWGQGTQVTVSS | low polyreactivity
QVQLVESGGGLVQAGGSLRLSCASSGRTFQYYAMGWYRQAPGKERELVAAISSRGGSTYYADSVKGRFTISRDNAKNTVYLQMNSLKPEDTAVYYCAAYVLPRQRVRSDYWGQGTQVTVSS | high polyreactivity
QVQLVESGGGLVQAGGSLRLSCASSGRTFRYNAKGWYRQAPGKERELVAAISWSGGGTYYSDSVKGRFTISRDNAKNTVYLQMNSLKPEDTAVYYCAAEEQIPLTNNSKYYYWGQGTQVTVSS | low polyreactivity
QVQLVESGGGLVQAGGSLRLSCASSGRTFYLNAMGWYRQAPGKERELVAAISKRGGSTYYADSVKGRFTISRDNAKNTVYLQMNSLKPEDTAVYYCAKGFSFYSPRYDYWGQGTQVTVSS | high polyreactivity
QVQLVESGGGLVQAGGSLRLSCASSGRTLRRYAMGWYRQAPGKERELVAAISRSGSSTYADSVKGRFTISRDNAKNTVYLQMNSLKPEDTAVYYCNAYQPRYVYWGQGTQVTVSS | high polyreactivity
QVQLVESGGGLVQAGGSLRLSCASSGRTYTLNAMGWYRQAPGKERELVAAIRRGGSTYYADSVKGRFTISRDNAKNTVYLQMNSLKPEDTAVYYCAARGTGYHGYGYWGQGTQVTVSS | high polyreactivity
QVQLVESGGGLVQAGGSLRLSCASSGSIFQYNAMGWYRQAPGKERELVAAINGGGSTYYADSVRGRFTISRDNAKNTVYLQMNSLKPEDTAVYYCAARHGESHYDYWGQGTQVTVSS | low polyreactivity
